In assay [1] the target is T1, LAG3 of the Promega LAG3-MHCII Blockade Bioassay Kit (Cat. No.: CS194802) (UniProt P18627 23-525, limits assumed).
T1 sequence (looked up): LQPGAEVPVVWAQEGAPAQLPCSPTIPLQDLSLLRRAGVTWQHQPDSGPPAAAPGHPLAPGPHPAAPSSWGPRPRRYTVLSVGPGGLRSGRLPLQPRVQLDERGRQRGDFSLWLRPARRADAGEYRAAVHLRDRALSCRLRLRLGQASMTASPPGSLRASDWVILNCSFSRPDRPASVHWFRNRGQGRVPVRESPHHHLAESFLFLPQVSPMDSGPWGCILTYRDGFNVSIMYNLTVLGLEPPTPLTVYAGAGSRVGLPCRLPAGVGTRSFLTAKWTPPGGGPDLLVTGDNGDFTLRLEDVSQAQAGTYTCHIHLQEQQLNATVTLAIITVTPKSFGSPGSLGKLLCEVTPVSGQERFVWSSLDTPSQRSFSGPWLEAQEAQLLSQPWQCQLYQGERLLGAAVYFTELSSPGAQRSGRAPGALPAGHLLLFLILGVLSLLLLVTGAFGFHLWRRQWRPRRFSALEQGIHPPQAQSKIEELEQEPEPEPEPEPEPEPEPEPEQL
The experiment in a line: cell-based or functional assay.

The target of assay [2] is T2, recombinant human LAG3 (Sino Biological Inc.) (human, UniProt P18627 23-450).
T2 construct: Bought recombinant protein; also called CD223; biotinylated recombinant human LAG3
T2 sequence (looked up): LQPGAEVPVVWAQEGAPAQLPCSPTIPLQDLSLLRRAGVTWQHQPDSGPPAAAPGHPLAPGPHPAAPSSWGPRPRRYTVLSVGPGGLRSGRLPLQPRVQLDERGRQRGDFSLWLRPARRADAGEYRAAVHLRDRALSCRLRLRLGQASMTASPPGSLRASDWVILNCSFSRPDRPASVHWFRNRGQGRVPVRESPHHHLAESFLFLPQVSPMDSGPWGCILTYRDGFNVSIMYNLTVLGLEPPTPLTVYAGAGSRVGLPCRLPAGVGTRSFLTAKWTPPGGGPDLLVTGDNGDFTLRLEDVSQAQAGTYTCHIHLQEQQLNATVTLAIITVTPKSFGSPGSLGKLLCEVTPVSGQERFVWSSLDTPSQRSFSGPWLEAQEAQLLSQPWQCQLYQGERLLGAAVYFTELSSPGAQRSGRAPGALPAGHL
The experiment in a line: ELISA, recombinant human LAG3 coated, IgG detected by anti-human IgG (Fc-specific)-HRP. Here is the method:
ELISA was performed according to standard protocols. Briefly, recombinant human LAG3 (Sino Biological Inc.) was coated on Corning EIA/RIA high-binding 96-well plates (Corning Inc.) at 50 ng per well overnight at 4° C. and blocked with 3% nonfat milk in PBS (pH7.4). Fivefold serially diluted antibodies were added and incubated at room temperature for 2 h. The plates were washed with PBS containing 0.05% Tween 20. Bound Fab and IgG antibodies were detected by HRP-conjugated anti-FLAG tag antibody and HRP-conjugated anti-human IgG (Fe-specific) antibody (Sigma-Aldrich), respectively. The assay was developed at room temperature with TMB substrate (Sigma-Aldrich) and monitored at 450 nm with a microplate reader. The half-maximal binding (EC₅₀) was calculated by fitting the data to the Langmuir adsorption isotherm. DNV3 IgG1 and IgG4 were cloned into the plasmid vectors pDin1 and pDin4, respectively. They were expressed and purified from transiently transfected 293 freestyle cell cultures with a yield of […]. In ELISA, both DNV3 IgG1 and IgG4 bound to recombinant human LAG3 with an EC₅₀ of approximately 0.5 nM (FIG. 5).

Data on two molecules can be found in patent US20210115135A1 (ZHEJIANG SHIMAI PHARMACEUTICAL, published 2021).

B1: DNV3 IgG4 (antibody)
heavy: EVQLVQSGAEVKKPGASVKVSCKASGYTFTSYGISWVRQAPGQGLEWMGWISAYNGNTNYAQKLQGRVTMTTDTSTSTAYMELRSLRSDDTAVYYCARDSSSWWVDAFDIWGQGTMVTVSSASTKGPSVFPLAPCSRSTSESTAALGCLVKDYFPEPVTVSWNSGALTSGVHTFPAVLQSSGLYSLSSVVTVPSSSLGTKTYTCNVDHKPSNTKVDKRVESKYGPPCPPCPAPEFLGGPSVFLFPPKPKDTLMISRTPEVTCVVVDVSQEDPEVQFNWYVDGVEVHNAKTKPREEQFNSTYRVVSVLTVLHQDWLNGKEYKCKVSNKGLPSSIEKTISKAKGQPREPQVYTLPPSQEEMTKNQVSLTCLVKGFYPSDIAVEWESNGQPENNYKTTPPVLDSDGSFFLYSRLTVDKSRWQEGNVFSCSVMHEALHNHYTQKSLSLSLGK
light: QSVLTQPPSVSAAPGQKVTISCSGSTSNIAINYVSWYQQVPGTVPKLLIYDDDKRPSGIPDRFSGSKSGTSATLDISGLQTGDEAHYYCGVWDNSLLAVLFGGGTSLTVLGQPKAAPSVTLFPPSSEELQANKATLVCLISDFYPGAVTVAWKADSSPVKAGVETTTPSKQSNNKYAASSYLSLTPEQWKSHRSYSCQVTHEGSTVEKTVAPTECS
notes: Human IgG4 made in 293FS cells; also called original DNV3 IgG4
For the molecule B1, the “T cell activation, EC50” value in assay [1] worked out at 8.7 nM. Moreover, in assay [2], the 50% effective concentration (EC50) – broadly, the midpoint of the concentration-response curve – is ~0.5 nM.

B2: DNV3 IgG1 (antibody)
heavy: not shown
light: B1 light
notes: Human IgG1 made in 293FS cells
Regarding B2, the EC50 in assay [2] was ~0.5 nM.
